From patent US20170189519A1

B1: Fab fragment of CR6261 (Fab, V domains shown)
VH: EVQLVESGAEVKKPGSSVKVSCKASGGPFRSYAISWVRQAPGQGPEWMGGIIPIFGTTKYAPKFQGRVTITADDFAGTVYMELSSLRSEDTAMYYCAKHMGYQVRETMDVWGKGTTVTVSS
VL: QSVLTQPPSVSAAPGQKVTISCSGSSSNIGNDYVSWYQQLPGTAPKLLIYDNNKRPSGIPDRFSGSKSGTSATLGITGLQTGDEANYYCATWDRRPTAYVVFGGGTKLTVLG
B2: CR6261 (antibody, V domains shown)
VH: B1 VH
VL: B1 VL

Tests used:
Conditions in all cases: remark: other sources report otherwise
s127H1-t2-cl18long [1] = test: SEC-MALS of trimer with Fab fragments; value in brackets is the theoretical one
[2] = target: UFV150124 (influenza A virus H1 A/Brisbane/59/2007)
[3] = target: UFV150125 (influenza A virus H1 A/Brisbane/59/2007)
[4] = target: UFV150134 (influenza A virus H1 A/California/07/2009)
[5] = target: UFV150135 (influenza A virus H1 A/California/07/2009)
s127H1-t2-cl18long [6] = test: Kd app from steady state Octet (biolayer interferometry), antibody immobilized

Binder	Mw of trimer protein complex with CRF6261 (s127H1-t2-cl18long [1]) [kDa]	CR6261 binding AlphaLISA (counts) [2] [counts]	CR6261 binding AlphaLISA (counts) [3] [counts]	CR6261 binding AlphaLISA (counts) [4] [counts]	CR6261 binding AlphaLISA (counts) [5] [counts]	Kd (s127H1-t2-cl18long [6]) [nM]
B1	216					
B2		572000	475000	587000	625000	0.5
